Test [1] has as its target T1, Cynomolgus IL-1β (cynomolgus, UniProt P79182 117-268, limits assumed).
T1 sequence (looked up): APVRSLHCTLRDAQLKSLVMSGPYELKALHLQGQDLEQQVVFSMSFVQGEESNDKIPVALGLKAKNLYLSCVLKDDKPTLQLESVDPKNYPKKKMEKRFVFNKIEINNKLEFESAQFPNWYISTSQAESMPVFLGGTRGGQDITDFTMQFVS
The test is described as follows: cell-based or functional assay.

Test [2] addresses T2, Recombinant Human IL-1β (human, UniProt P01584 117-269). Description: cell-based or functional assay.
Test [3] has as its target T2, Recombinant Human IL-1β. Description: SPR (BIACORE), human antigen. The procedure: (§1) The BIACORE assay (Biacore, Inc, Piscataway, N.J.) determines the affinity of antibodies or DVD-Ig molecule with kinetic measurements of on-rate and off-rate constants. Binding of antibodies or DVD-Ig molecule to a target antigen (for example, a purified recombinant target antigen) is determined by surface plasmon resonance-based measurements with a Biacore® 1000 or 3000 instrument (Biacore® AB, Uppsala, Sweden) using running HBS-EP (10 mM HEPES [pH 7.4], 150 mM NaCl, 3 mM EDTA, and 0.005% surfactant P20) at 25° C. All chemicals are obtained from Biacore® AB (Uppsala, Sweden) or otherwise from a different source as described in the text. For example, approximately 5000 RU of goat anti-mouse IgG, (Fcγ), fragment specific polyclonal antibody (Pierce Biotechnology Inc, Rockford, Ill.) diluted in 10 mM sodium acetate (pH 4.5) is directly immobilized across a CM5 research grade biosensor chip using a standard amine coupling kit according to manufacturer's instructions and procedures at 25 μg/ml. Unreacted moieties on the biosensor surface are blocked with ethanolamine. Modified carboxymethyl dextran surface in flowcell 2 and 4 is used as a reaction surface. Unmodified carboxymethyl dextran without goat anti-mouse IgG in flow cell 1 and 3 is used as the reference surface. For kinetic analysis, rate equations derived from the 1:1 Langmuir binding model are fitted simultaneously to association and dissociation phases of all eight injections (using global fit analysis) with the use of Biaevaluation 4.0.1 software. Purified antibodies or DVD-Ig molecule are diluted in HEPES-buffered saline for capture across goat anti-mouse IgG specific reaction surfaces. Antibodies or DVD-Ig molecule to be captured as a ligand (25 μg/ml) are injected over reaction matrices at a flow rate of 5 μl/min. The association and dissociation rate constants, kₒₙ (M⁻¹s⁻¹) and koff (s⁻¹) are determined under a continuous flow rate of 25 μl/minute. Rate constants are derived by making kinetic binding measurements at different antigen concentrations ranging from 10-200 nM. The equilibrium dissociation constant (M) of the reaction between antibodies or DVD-Ig molecules and the target antigen is then calculated from the kinetic rate constants by the following formula: KD=koff/kₒₙ. Binding is recorded as a function of time and kinetic rate constants are calculated.

Test [4] addresses T3, Recombinant Human IL-1α (human, UniProt P01583 113-271).
T3 construct: Bought recombinant protein; Biotinylated in the capture ELISA; also called hIL-1α; IL-1 alpha
T3 sequence (looked up): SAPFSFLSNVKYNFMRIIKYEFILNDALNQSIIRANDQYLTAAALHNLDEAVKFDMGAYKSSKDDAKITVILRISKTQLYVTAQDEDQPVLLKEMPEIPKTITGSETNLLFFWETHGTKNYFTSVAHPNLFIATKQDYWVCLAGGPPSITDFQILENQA
The test is described as follows: SPR (BIACORE), human antigen. The procedure: as §1

The target of test [5] is T3, Recombinant Human IL-1α. Description: cell-based or functional assay.
The target in test [6] is T4, Cynomolgus IL-1α (cynomolgus, UniProt P79340 113-271, limits assumed).
T4 sequence (looked up): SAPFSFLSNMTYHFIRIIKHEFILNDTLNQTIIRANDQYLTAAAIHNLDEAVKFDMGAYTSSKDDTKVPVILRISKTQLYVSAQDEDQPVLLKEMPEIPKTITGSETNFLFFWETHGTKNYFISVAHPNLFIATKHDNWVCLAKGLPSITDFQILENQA
The test is described as follows: cell-based or functional assay.

The target in test [7] is T4, Cynomolgus IL-1α. The test is described as follows: SPR (BIACORE), cynomolgus antigen.
In test [8] the target is T3, Recombinant Human IL-1α. The test is described as follows: capture ELISA: antibody captured by anti-human Fc, biotinylated antigen titrated. The procedure: (§2) Plates were washed five times in washing buffer (PBS containing 0.05% Tween 20) and blocked for 1 hour at 25° C. with 200 μl per well superblock blocking buffer (Thermo scientific, #37515). Blocking buffer was removed, and 2 μg/ml of each antibody or DVD-Ig molecule in PBS containing 10% superblock, 0.5% Tween-20 was added to the wells at 100 μl per well and incubated at 25° C. for 1 hour. The wells were washed five times in 1×PBST, and 1 μg/ml biotinylated antigen was titrated at 1:6 serial dilutions (for a range of μg to pg in PBS containing 10% superblock, 0.05% tween 20). Each dilution of antigen was then added to the plates and incubated for 1 hour at 25° C. The wells were washed five times in 1×PBST and incubated for 1 hour at 25° C. with polyHRP streptavidin (KPL #474-3000, Gaithersburg, Md.). The wells were washed five times in 1×PBST, and 100 μl of ULTRA-TMB ELISA (Pierce, Rockford, Ill.) were added per well. Following color development the reaction was stopped with 1N HCL and absorbance at 450 nm is measured.

In test [9] the target is T2, Recombinant Human IL-1β. Described as above. The procedure: as §2

B1: E26.13-SS-3D12.10/15 (bispecific antibody, human IgG1, kappa, L234A L235A)
heavy: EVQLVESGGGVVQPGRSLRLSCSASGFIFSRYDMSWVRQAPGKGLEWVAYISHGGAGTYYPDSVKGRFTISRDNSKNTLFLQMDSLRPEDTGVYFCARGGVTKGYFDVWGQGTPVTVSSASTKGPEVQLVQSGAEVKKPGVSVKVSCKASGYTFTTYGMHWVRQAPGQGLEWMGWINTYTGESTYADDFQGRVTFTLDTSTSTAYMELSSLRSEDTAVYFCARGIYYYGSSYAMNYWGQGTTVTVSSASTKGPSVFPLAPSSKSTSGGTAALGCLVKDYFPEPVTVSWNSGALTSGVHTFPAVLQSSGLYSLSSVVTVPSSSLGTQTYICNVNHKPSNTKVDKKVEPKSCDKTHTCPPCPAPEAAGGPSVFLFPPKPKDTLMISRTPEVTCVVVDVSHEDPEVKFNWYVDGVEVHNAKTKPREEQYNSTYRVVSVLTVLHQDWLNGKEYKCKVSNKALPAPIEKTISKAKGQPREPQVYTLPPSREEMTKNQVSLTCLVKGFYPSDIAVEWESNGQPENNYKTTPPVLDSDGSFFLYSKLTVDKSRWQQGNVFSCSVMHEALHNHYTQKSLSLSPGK
light: DIQMTQSPSSLSASVGDRVTITCRASGNIHNYLTWYQQTPGKAPKLLIYNAKTLADGVPSRFSGSGSGTDYTFTISSLQPEDIATYYCQHFWSIPYTFGQGTKLQITRTVAAPDIQMTQSPSSLSASVGDRVTITCRASQDISNMLNWYQQKPGKTPKLLIYYTSRLYPGVPSRFSGSGSGTDYTFTISSLQPEDIATYFCQQGKTLPYAFGQGTKLEIKRTVAAPSVFIFPPSDEQLKSGTASVVCLLNNFYPREAKVQWKVDNALQSGNSQESVTEQDSKDSTYSLSSTLTLSKADYEKHKVYACEVTHQGLSSPVTKSFNRGEC
notes: DVD-Ig, outer (N-terminal) domain anti-IL-1β, inner domain anti-IL-1α, short linkers
Consider B1, for which the “Cyno IL-1β Neutralization Assay EC50 (IL-1 induced hIL-8, MRC-5 cells)” value in test [1] turned out to be 0.0056 nM. Also, the “Human IL-1β Neutralization Assay EC50 (IL-1 induced hIL-8, MRC-5 cells)” value (from here on “Human IL-1β Neutralization Assay EC50”) in test [2] was 0.0099 nM. For the same molecule, in test [3], the Kd was determined as 0.0161 nM, the off-rate constant (koff) amounted to 2.65e-05 s⁻¹ and the kon is 1.66e+06 M⁻¹ s⁻¹. Besides, in [4], the Kd was 0.569 nM, the koff was found to be 3.25e-05 s⁻¹ and the kon came to 56900 M⁻¹ s⁻¹. For the same molecule, the “Human IL-1α Neutralization Assay EC50 (IL-1 induced hIL-8, MRC-5 cells)” value (shortened to “Human IL-1α Neutralization Assay EC50”) in test [5] worked out at 0.0538 nM. Moreover, in test [6], the “Cyno IL-1α Neutralization Assay EC50 (IL-1 induced hIL-8, MRC-5 cells)” value (shortened to “Cyno IL-1α Neutralization Assay EC50”) is 0.0626 nM.

B2: 3D12.10/15 (antibody, human IgG1, kappa, L234A L235A, V domains shown)
VH: EVQLVQSGAEVKKPGVSVKVSCKASGYTFTTYGMHWVRQAPGQGLEWMGWINTYTGESTYADDFQGRVTFTLDTSTSTAYMELSSLRSEDTAVYFCARGIYYYGSSYAMNYWGQGTTVTVSS
VL: DIQMTQSPSSLSASVGDRVTITCRASQDISNMLNWYQQKPGKTPKLLIYYTSRLYPGVPSRFSGSGSGTDYTFTISSLQPEDIATYFCQQGKTLPYAFGQGTKLEIKR
notes: Parent anti-IL-1α antibody; also called 3D12 10/15VH; 3D12 10/15VL
Regarding B2, in test [7], the Kd came to 0.0578 nM, the koff is 2.25e-05 s⁻¹ and the kon worked out at 389000 M⁻¹ s⁻¹. Also, in test [4], the Kd is 0.115 nM, the koff amounted to 4.1e-05 s⁻¹ and the kon worked out at 355000 M⁻¹ s⁻¹. In addition, the EC50 in test [8] was determined as 0.007 nM. Besides, the “Human IL-1α Neutralization Assay EC50” value in test [5] came to 0.0057 nM. Moreover, the “Cyno IL-1α Neutralization Assay EC50” value in test [6] came out at 0.0126 nM.

B3: 3D12r16 (antibody, human IgG1, kappa, L234A L235A, V domains shown)
VH: EVQLVQSGAEVKKPGASVKVSCKASGYTFKYYGMNWVRQAPGQGLERMGWINTYTGQSTYADDFKGRVTFTLDTSTSTAYMELSSLRSEDTAVYYCARDIYYYGSDFAMDYWGQGTTVTVSS
VL: DIQMTQSPSSLSASVGDRVTITCRASQDISNMLNWYQQKPGKAPKLLIYYTSRLKPGVPSRFSGSGSGTDYTFTISSLQPEDIATYFCQQGKTAPYTFGQGTKLEIKR
notes: Parent anti-IL-1α antibody; also called 3D12r16VH; 3D12r16VL
Consider B3, for which, in test [4], the Kd amounted to 0.031 nM, the koff was found to be 2.77e-05 s⁻¹ and the on-rate (kon) came to 900000 M⁻¹ s⁻¹. Also, in test [8], the EC50 was 0.072 nM. The “Human IL-1α Neutralization Assay EC50” value in [5] was determined as 0.00056 nM. For the same molecule, the “Cyno IL-1α Neutralization Assay EC50” value in [6] was determined as 0.0008 nM.

B4: 3D12.8 (antibody, human IgG1, kappa, L234A L235A, V domains shown)
VH: EIQLVQSGSELKKPGASVKVSCKASGYTFTNYGMNWVRQAPGQDLERMAWINTYTGESTYADDFKGRFVFSLDTSVSTAYLQISSLKAEDTAVYFCARGIYYYGSSYAMDYWGQGTTVTVSS
VL: DIQMTQSPSSLSASVGDRVTITCRASQDISNCLNWYQQKPGKTPKLLIYYTSRLHSGVPSRFSGSGSGTDYTFTISSLQPEDIATYFCQQGKTLPYAFGQGTKLEIKR
notes: Parent anti-IL-1α antibody; also called 3D12.8VH; 3D12.8VL
On to B4, for which, in test [4], the Kd worked out at 1.35 nM, the koff came to 0.00274 s⁻¹ and the kon stood at 2.04e+06 M⁻¹ s⁻¹. Moreover, the half-maximal effective concentration (EC50) in [8] was determined as 0.028 nM.

B5: 3D12.16 (antibody, human IgG1, kappa, L234A L235A, V domains shown)
VH: EIQLVQSGAEVKKPGASVKVSCKASGYTFTNYGMNWVRQAPGQDLERMAWINTYTGESTYADDFKGRFTFTLDTSTSTAYMELSSLRSEDTAVYFCARGIYYYGSSYAMDYWGQGTTVTVSS
VL: DIQMTQSPSSLSASVGDRVTITCRASQDISNCLNWYQQKPGKTPKLLIYYTSRLHSGVPSRFSGSGSGTDYTFTISSLQPEDIATYFCQQGKTLPYAFGQGTKLEIKR
notes: Parent anti-IL-1α antibody; also called 3D12.16VH; 3D12.16VL
Take B5: in test [4], the Kd worked out at 2.09 nM, the koff was determined as 0.00253 s⁻¹ and the kon was 1.21e+06 M⁻¹ s⁻¹. The EC50 in [8] was determined as 0.01 nM.

B6: 1B12.1 (antibody, human IgG1, kappa, L234A L235A, V domains shown)
VH: EVQLQESGPGLVKPSETLSLTCTVSGFSLSDYGVSWIRQPPGKGLEWLGLIWGGGDTYYNSPLKSRLTISKDNSKSQVSLKLSSVTAADTAVYYCAKQRTLWGYDLYGMDYWGQGTLVTVSS
VL: DTQVTQSPSSLSASVGDRVTITCITSTDIDVDMNWYQQKPGKPPKLLISQGNTLRPGVPSRFSSSGSGTDFTFTISSLQPEDFATYYCLQSDNLPLTFGQGTKLEIKR
notes: Parent anti-IL-1β antibody; also called 1B12.1VH; 1B12.1VL
B6: the “Human IL-1β Neutralization Assay EC50” value in test [2] is 0.15 nM. In test [3], the Kd came out at 0.186 nM, the koff turned out to be 0.00103 s⁻¹ and the kon was 5.55e+06 M⁻¹ s⁻¹. The EC50 in test [9] worked out at 0.0399 nM.

B7: 1B12.3 (antibody, human IgG1, kappa, L234A L235A, V domains shown)
VH: EVQLQESGPGLVKPSETLSLTCTVSGFSLSDYGVSWIRQPPGKGLEWLGLIWGGGDTYYNSPLKSRLTISKDNSKSQVSLKLSSVTAADTAVYYCAKQRTLWGYDLYGMDYWGQGTLVTVSS
VL: DTVVTQSPAFLSVTPGEKVTITCITSTDIDVDMNWYQQKPDQPPKLLISQGNTLRPGVPSRFSSSGSGTDFTFTISSLEAEDAATYYCLQSDNLPLTFGQGTKLEIKR
notes: Parent anti-IL-1β antibody; also called 1B12.3VH; 1B12.3VL
As for B7, in [2], the “Human IL-1β Neutralization Assay EC50” value worked out at 0.3 nM. Moreover, in test [3], the Kd was found to be 0.206 nM, the koff stood at 0.00118 s⁻¹ and the kon turned out to be 5.73e+06 M⁻¹ s⁻¹. Moreover, in [9], the EC50 was 0.0438 nM.

B8: 1B12.6 (antibody, human IgG1, kappa, L234A L235A, V domains shown)
VH: EVQLVESGGGLVQPGGSLRLSCAVSGFTLSDYGVSWIRQAPGKGLEWLGLIWGGGDTYYNSPLKSRLTISKDNSKSTVYLQMNSLRAEDTAVYYCAKQRTLWGYDLYGMDYWGQGTLVTVSS
VL: ETTVTQSPSSLSASVGDRVTITCITSTDIDVDMNWYQQKPGKPPKLLISQGNTLRPGVPSRFSSSGSGTDFTFTISSLQPEDFATYYCLQSDNLPLTFGQGTKLEIKR
notes: Parent anti-IL-1β antibody; also called 1B12.6VH; 1B12.6VL
For B8, in [2], the “Human IL-1β Neutralization Assay EC50” value is 0.38 nM. In addition, in test [3], the Kd is 0.202 nM, the koff came out at 0.00125 s⁻¹ and the kon came out at 6.2e+06 M⁻¹ s⁻¹. The EC50 in test [9] was 0.0459 nM.

The record behind these values is patent publication US20120189541A1 (AbbVie / Abbott, published 2012).
